In patent publication US20140072544A1, “POLYBACTERIAL PREPARATION WITH HEALTH BENEFITS: ANTIOXIDANT EFFECT, REDUCTION OF CHOLESTEROL CONCENTRATION, ANTI-INFLAMMATORY IMMUNOMODULATING EFFECT AND RELEASE OF BIOACTIVE PEPTIDES INHIBITING ANGIOTENSIN-CONVERTING ENZYME” (LB BULGARICUM PLC, priority 2011, published 2014):

Target: angiotensin-converting enzyme (ACE) (Homo sapiens, UniProt P12821)
Experiment: ACE-inhibiting activity of peptide extracts
Type: biochemical
Details: purified single peptide released by L. helveticus A1 (HPLC fractionation, ion exchange)
Description: Purified strains with inoculum of 0.1% are incubated for 18 hours in 9% skimmed milk at 37° C. After adjusting the pH to 4.3 with 50% lactic acid the samples are centrifuged (5000 g, 10 min). Supernatant is dosed at reverse-phase cartridge and washed with water. The process is followed by elution with 60% acetonitrile in 0.1% trifluoroacetic acid and then evaporation and reconstitution of the resulting extract. The extract or its dilutions are analyzed for inhibition of ACE.
A total peptide extract is prepared. Enzymatic reaction is carried out by a conventional test, but using different dilutions of peptide extracts as their volume is 20 μl. The enzyme solution was 40 μl with an activity of 0.1 U/ml. The substrate hipuril-histidil-leucine is dissolved in borate buffer at pH 8.3 and has a volume of 190 μl. The final concentration of the substrate is 6 mM, and those of sodium chloride is 300 mM. The reaction is conducted at 37° C. for 30 minutes. The seizing is performed with 100 microliters of 4 n HCl, and the extraction of the freed hippuric acid is done with 1 ml of ethyl acetate. After evaporation of the solvent, the residue is dissolved in 1 ml of water and tested spectrophotometrically at 228 nm. […]
where A is the absorbance under the upper reaction, C is the absorbance without enzyme, B is the absorbance without the involvement of peptide extracts. […]

Chain of angiotensin-converting enzyme (ACE) (P12821 30-1306, species assumed): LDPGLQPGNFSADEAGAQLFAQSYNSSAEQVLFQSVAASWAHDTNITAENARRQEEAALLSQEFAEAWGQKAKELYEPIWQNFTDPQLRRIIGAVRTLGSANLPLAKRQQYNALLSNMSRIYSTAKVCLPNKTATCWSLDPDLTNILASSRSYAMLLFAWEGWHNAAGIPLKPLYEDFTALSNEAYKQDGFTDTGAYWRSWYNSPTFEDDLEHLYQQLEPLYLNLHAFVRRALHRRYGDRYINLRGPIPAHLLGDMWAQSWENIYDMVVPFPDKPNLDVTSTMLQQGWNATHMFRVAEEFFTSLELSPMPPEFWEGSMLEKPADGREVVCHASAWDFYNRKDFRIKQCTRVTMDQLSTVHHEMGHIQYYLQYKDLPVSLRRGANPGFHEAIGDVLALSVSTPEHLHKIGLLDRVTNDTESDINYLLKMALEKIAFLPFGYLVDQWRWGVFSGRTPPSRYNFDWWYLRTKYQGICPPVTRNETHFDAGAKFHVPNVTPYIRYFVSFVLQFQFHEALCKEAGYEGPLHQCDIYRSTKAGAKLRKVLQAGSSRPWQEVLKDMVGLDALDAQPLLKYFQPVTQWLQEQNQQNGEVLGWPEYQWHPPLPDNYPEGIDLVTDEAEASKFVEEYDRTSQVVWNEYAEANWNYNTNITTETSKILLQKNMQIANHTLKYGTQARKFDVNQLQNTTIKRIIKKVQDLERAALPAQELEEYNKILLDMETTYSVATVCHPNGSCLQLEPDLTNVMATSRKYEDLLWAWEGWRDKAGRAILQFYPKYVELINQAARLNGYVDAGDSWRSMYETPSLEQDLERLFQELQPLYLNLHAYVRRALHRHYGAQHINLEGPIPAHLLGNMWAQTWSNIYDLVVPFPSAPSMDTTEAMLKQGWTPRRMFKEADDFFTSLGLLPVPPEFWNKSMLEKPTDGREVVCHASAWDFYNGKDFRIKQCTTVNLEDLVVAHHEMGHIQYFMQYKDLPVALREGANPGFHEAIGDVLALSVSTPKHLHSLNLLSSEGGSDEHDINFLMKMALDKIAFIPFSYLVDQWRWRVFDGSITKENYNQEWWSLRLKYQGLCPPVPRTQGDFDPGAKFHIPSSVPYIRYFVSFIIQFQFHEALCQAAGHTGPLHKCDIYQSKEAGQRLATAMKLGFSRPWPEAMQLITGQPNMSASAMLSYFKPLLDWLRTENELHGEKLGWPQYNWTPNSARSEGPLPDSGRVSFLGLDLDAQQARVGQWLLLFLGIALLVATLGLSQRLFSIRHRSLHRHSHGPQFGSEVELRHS

Anti-ACE activity %: 78.0%
Substance: Ala-Leu-Pro-Met (ALPM; printed: Ala-Leu-Pro-Met) [anti-ACE peptide released by the strain L. helveticus A1, purified from fermented milk]
